In patent US20040018971A1 (published 2004):

B1: HER2/neu peptide, position 701, 10 amino acids (peptide)
peptide: TPSGAMPNQA
notes: T0001 prints N at residue 706; also called Her2/neu.701
B2: HER2/neu peptide, position 706, 9 amino acids (peptide)
peptide: MPNQAQMRI
notes: T0001 prints N at residue 706; also called Her2/neu.706
B3: HER2/neu peptide, position 706, 10 amino acids (peptide)
peptide: MPNQAQMRIL
notes: as for B2

molecular target: T1, HLA-B*0702 (human); experiment: inhibition of 125I standard peptide binding to purified HLA
T1 construct: also called B7 supertype prototype molecule

Row | Binder | relative binding ratio
1 | NPEYLTPQGGA (also called Her2/neu.1193) [HER2/neu peptide, position 1193, 11 amino acids] | -0.0003 ratio to standard peptide
2 | B1 | 0.0001 ratio to standard peptide
3 | NPQLCYQDTI (also called Her2/neu.158) [HER2/neu peptide, position 158, 10 amino acids] | 0.0001 ratio to standard peptide
4 | NPEGRYTFGA (also called Her2/neu.284) [HER2/neu peptide, position 284, 10 amino acids] | 0.0001 ratio to standard peptide
5 | PPERGAPPSTF (also called Her2/neu.1227) [HER2/neu peptide, position 1227, 11 amino acids] | -0.0003 ratio to standard peptide
6 | PPICTIDV (also called Her2/neu.944) [HER2/neu peptide, position 944, 8 amino acids] | -0.0006 ratio to standard peptide
7 | SPGKNGVV (also called Her2/neu.1174) [HER2/neu peptide, position 1174, 8 amino acids] | 0.023 ratio to standard peptide
8 | PPPAFSPA (also called Her2/neu.1209) [HER2/neu peptide, position 1209, 8 amino acids] | -0.0002 ratio to standard peptide
9 | PPICTIDVYMI (also called Her2/neu.944) [HER2/neu peptide, position 944, 11 amino acids] | 0.0064 ratio to standard peptide
10 | QPHPPPAF (also called Her2/neu.1206) [HER2/neu peptide, position 1206, 8 amino acids] | 0.0002 ratio to standard peptide
11 | SPREGPLPAA (also called Her2/neu.1151) [HER2/neu peptide, position 1151, 10 amino acids] | 0.46 ratio to standard peptide
12 | PPICTIDVY (also called Her2/neu.944) [HER2/neu peptide, position 944, 9 amino acids] | 0.0001 ratio to standard peptide
13 | B2 | 0.009 ratio to standard peptide
14 | NPEYLGLDV (also called Her2/neu.1245) [HER2/neu peptide, position 1245, 9 amino acids] | 0.0001 ratio to standard peptide
15 | SPAFDNLY (also called Her2/neu.1214) [HER2/neu peptide, position 1214, 8 amino acids] | -0.0002 ratio to standard peptide
16 | SPREGPLPA (also called Her2/neu.1151) [HER2/neu peptide, position 1151, 9 amino acids] | 0.64 ratio to standard peptide
17 | PPSTFKGTPTA (also called Her2/neu.1233) [HER2/neu peptide, position 1233, 11 amino acids] | -0.0003 ratio to standard peptide
18 | QPQNGSVTCF (also called Her2/neu.568) [HER2/neu peptide, position 568, 10 amino acids] | 0.0004 ratio to standard peptide
19 | WPDSLPDLSV (also called Her2/neu.415) [HER2/neu peptide, position 415, 10 amino acids] | 0.0044 ratio to standard peptide
20 | PPAFSPAFDNL (also called Her2/neu.1210) [HER2/neu peptide, position 1210, 11 amino acids] | -0.0002 ratio to standard peptide
21 | SPYVSRLLGI (also called Her2/neu.779) [HER2/neu peptide, position 779, 10 amino acids] | 0.1 ratio to standard peptide
22 | VPLQRLRI (also called Her2/neu.94) [HER2/neu peptide, position 94, 8 amino acids] | 0.002 ratio to standard peptide
23 | MPYGCLLDHV (also called Her2/neu.801) [HER2/neu peptide, position 801, 10 amino acids] | 0.0085 ratio to standard peptide
24 | PPGAASTQV (also called Her2/neu.17) [HER2/neu peptide, position 17, 9 amino acids] | 0.0001 ratio to standard peptide

Row | Binder | relative binding ratio
25 | TPVTGASPGGL (also called Her2/neu.127) [HER2/neu peptide, position 127, 11 amino acids] | -0.0002 ratio to standard peptide
26 | SPLTSIISAV (also called Her2/neu.649) [HER2/neu peptide, position 649, 10 amino acids] | 0.09 ratio to standard peptide
27 | PPAFSPAF (also called Her2/neu.1210) [HER2/neu peptide, position 1210, 8 amino acids] | -0.0002 ratio to standard peptide
28 | QPPICTIDV (also called Her2/neu.943) [HER2/neu peptide, position 943, 9 amino acids] | 0.0001 ratio to standard peptide
29 | TPTAENPEYL (also called Her2/neu.1240) [HER2/neu peptide, position 1240, 10 amino acids] | 0.0002 ratio to standard peptide
30 | SPNHVKITDF (also called Her2/neu.855) [HER2/neu peptide, position 855, 10 amino acids] | 0.0016 ratio to standard peptide
31 | SPLTSIISA (also called Her2/neu.649) [HER2/neu peptide, position 649, 9 amino acids] | 0.015 ratio to standard peptide
32 | QPHPPPAFSPA (also called Her2/neu.1206) [HER2/neu peptide, position 1206, 11 amino acids] | 0.0003 ratio to standard peptide
33 | NPEYLGLDVPV (also called Her2/neu.1245) [HER2/neu peptide, position 1245, 11 amino acids] | -0.0002 ratio to standard peptide
34 | QPEQLQVFETL (also called Her2/neu.393) [HER2/neu peptide, position 393, 11 amino acids] | -0.0002 ratio to standard peptide
35 | SPGGLRELQL (also called Her2/neu.133) [HER2/neu peptide, position 133, 10 amino acids] | 0.058 ratio to standard peptide
36 | VPLPSETDGY (also called Her2/neu.1118) [HER2/neu peptide, position 1118, 10 amino acids] | 0.0001 ratio to standard peptide
37 | SPETHLDML (also called Her2/neu.38) [HER2/neu peptide, position 38, 9 amino acids] | 0.0005 ratio to standard peptide
38 | WPDSLPDL (also called Her2/neu.415) [HER2/neu peptide, position 415, 8 amino acids] | 0.02 ratio to standard peptide
39 | SPKANKEIL (also called Her2/neu.760) [HER2/neu peptide, position 760, 9 amino acids] | 0.12 ratio to standard peptide
40 | PPSPREGPL (also called Her2/neu.1149) [HER2/neu peptide, position 1149, 9 amino acids] | 0.0054 ratio to standard peptide
41 | NPQLCYQDTIL (also called Her2/neu.158) [HER2/neu peptide, position 158, 11 amino acids] | -0.0002 ratio to standard peptide
42 | PPPAFSPAF (also called Her2/neu.1209) [HER2/neu peptide, position 1209, 9 amino acids] | 0.0002 ratio to standard peptide
43 | SPLDSTFYRSL (also called Her2/neu.998) [HER2/neu peptide, position 998, 11 amino acids] | 0.064 ratio to standard peptide
44 | SPGGLREL (also called Her2/neu.133) [HER2/neu peptide, position 133, 8 amino acids] | 0.055 ratio to standard peptide
45 | SPMCKGSRCW (also called Her2/neu.196) [HER2/neu peptide, position 196, 10 amino acids] | 0.0021 ratio to standard peptide
46 | SPAFDNLYYW (also called Her2/neu.1214) [HER2/neu peptide, position 1214, 10 amino acids] | 0.0001 ratio to standard peptide
47 | QPPICTIDVY (also called Her2/neu.943) [HER2/neu peptide, position 943, 10 amino acids] | 0.0001 ratio to standard peptide
48 | SPLDSTFY (also called Her2/neu.998) [HER2/neu peptide, position 998, 8 amino acids] | -0.0006 ratio to standard peptide

Row | Binder | relative binding ratio
49 | QPPSPREGPL (also called Her2/neu.1148) [HER2/neu peptide, position 1148, 10 amino acids] | 0.0014 ratio to standard peptide
50 | MPNPEGRYTF (also called Her2/neu.282) [HER2/neu peptide, position 282, 10 amino acids] | 0.0001 ratio to standard peptide
51 | SPETHLDM (also called Her2/neu.38) [HER2/neu peptide, position 38, 8 amino acids] | 0.0014 ratio to standard peptide
52 | PPICTIDVYM (also called Her2/neu.944) [HER2/neu peptide, position 944, 10 amino acids] | 0.0004 ratio to standard peptide
53 | NPEGRYTF (also called Her2/neu.284) [HER2/neu peptide, position 284, 8 amino acids] | -0.0002 ratio to standard peptide
54 | SPLAPSEGA (also called Her2/neu.1073) [HER2/neu peptide, position 1073, 9 amino acids] | 0.003 ratio to standard peptide
55 | SPGKNGVVKDV (also called Her2/neu.1174) [HER2/neu peptide, position 1174, 11 amino acids] | -0.0002 ratio to standard peptide
56 | QPPICTIDVYM (also called Her2/neu.943) [HER2/neu peptide, position 943, 11 amino acids] | 0.002 ratio to standard peptide
57 | VPIKWMAL (also called Her2/neu.884) [HER2/neu peptide, position 884, 8 amino acids] | 1.4 ratio to standard peptide
58 | RPRFRELVSEF (also called Her2/neu.966) [HER2/neu peptide, position 966, 11 amino acids] | 1.3 ratio to standard peptide
59 | QPEQLQVF (also called Her2/neu.393) [HER2/neu peptide, position 393, 8 amino acids] | -0.0002 ratio to standard peptide
60 | SPKANKEI (also called Her2/neu.760) [HER2/neu peptide, position 760, 8 amino acids] | 0.058 ratio to standard peptide
61 | VPLQRLRIV (also called Her2/neu.94) [HER2/neu peptide, position 94, 9 amino acids] | 0.0077 ratio to standard peptide
62 | SPYVSRLL (also called Her2/neu.779) [HER2/neu peptide, position 779, 8 amino acids] | 0.044 ratio to standard peptide
63 | SPAFDNLYY (also called Her2/neu.1214) [HER2/neu peptide, position 1214, 9 amino acids] | 0.0001 ratio to standard peptide
64 | RPEDECVGEGL (also called Her2/neu.499) [HER2/neu peptide, position 499, 11 amino acids] | -0.0002 ratio to standard peptide
65 | SPLTSIISAVV (also called Her2/neu.649) [HER2/neu peptide, position 649, 11 amino acids] | 0.025 ratio to standard peptide
66 | QPEYVNQPDV (also called Her2/neu.1136) [HER2/neu peptide, position 1136, 10 amino acids] | 0.0001 ratio to standard peptide
67 | VPIKWMALESI (also called Her2/neu.884) [HER2/neu peptide, position 884, 11 amino acids] | 0.0017 ratio to standard peptide
68 | RPRFRELV (also called Her2/neu.966) [HER2/neu peptide, position 966, 8 amino acids] | 0.041 ratio to standard peptide
69 | NPHQALLHTA (also called Her2/neu.488) [HER2/neu peptide, position 488, 10 amino acids] | 0.0005 ratio to standard peptide
70 | B3 | 0.049 ratio to standard peptide
71 | VPLPSETDGYV (also called Her2/neu.1118) [HER2/neu peptide, position 1118, 11 amino acids] | -0.0002 ratio to standard peptide

molecular target: HLA-B*0702 (human); experiment: competition with 125I-labelled probe peptide for purified HLA, gel filtration

Row | Binder | relative binding ratio
72 | APGAGGMV [HER2/neu peptide, position 1036, 8 amino acids] | 0.0063 ratio (IC50 of standard / IC50 of test peptide)
73 | APLQPEQL [HER2/neu peptide, position 390, 8 amino acids] | < 0.0006 ratio (IC50 of standard / IC50 of test peptide)
74 | APLQPEQLQV [HER2/neu peptide, position 390, 10 amino acids] | 0.0001 ratio (IC50 of standard / IC50 of test peptide)
